Assay results from paper PMC4164519.

Molecular target: Neu4 with a C-terminal TAP (SBP/CBP) tag expressed in COS 7 cells (human) (UniProt Q8WWR8)
Assay: SEC; FPLC size exclusion chromatography of the purified enzyme; apparent mass

stoichiometry N: 2
Substance: Neu4 with a C-terminal TAP (SBP/CBP) tag expressed in COS 7 cells (from UniProt Q8WWR8 1-484) (enzyme)
